The data set deals with the molecule itself. Kind of data set: non-reducing SDS-PAGE.

B1: matrix metalloprotease 9 (MMP-9) (enzyme)
chain: not shown
For B1, the “stoichiometry N” value was found to be 2.

For orientation: stoichiometry N means a count of units in the complex or per binding partner.

For the origin of these results see publication PMC2879331 (Clinical cancer research : an official journal of the …, 2008).
